Assays:
[1] = molecular target: IL-1 receptor (IL-1R) on cells (UniProt P14778); assay: cell-based or functional assay
[2] = molecular target: recombinant soluble His-tagged CD36; assay: SPR; His-tagged soluble CD36 immobilized, peptide 100 nM to 30 µM, Langmuir isotherm fit
[3] = molecular target: CD36 on RAW 264.7 murine macrophage cells (murine) (UniProt Q08857); assay: cell-based or functional assay
Sequence of CD36 on RAW 264.7 murine macrophage cells (murine) (Q08857 whole entry): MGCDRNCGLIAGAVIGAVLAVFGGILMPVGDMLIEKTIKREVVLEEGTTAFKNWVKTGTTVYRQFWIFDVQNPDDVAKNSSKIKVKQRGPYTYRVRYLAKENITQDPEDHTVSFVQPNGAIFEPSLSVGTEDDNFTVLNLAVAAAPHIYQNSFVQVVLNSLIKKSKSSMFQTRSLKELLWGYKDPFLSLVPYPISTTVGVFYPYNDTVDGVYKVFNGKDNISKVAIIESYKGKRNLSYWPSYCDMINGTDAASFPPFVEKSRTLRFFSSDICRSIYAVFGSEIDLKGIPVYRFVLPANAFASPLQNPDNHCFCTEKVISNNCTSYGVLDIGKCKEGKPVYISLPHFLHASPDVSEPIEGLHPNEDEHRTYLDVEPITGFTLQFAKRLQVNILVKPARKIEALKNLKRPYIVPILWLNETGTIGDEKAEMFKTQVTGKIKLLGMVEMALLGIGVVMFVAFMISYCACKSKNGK

Sequence of IL-1 receptor (IL-1R) on cells (P14778 18-569 limits assumed): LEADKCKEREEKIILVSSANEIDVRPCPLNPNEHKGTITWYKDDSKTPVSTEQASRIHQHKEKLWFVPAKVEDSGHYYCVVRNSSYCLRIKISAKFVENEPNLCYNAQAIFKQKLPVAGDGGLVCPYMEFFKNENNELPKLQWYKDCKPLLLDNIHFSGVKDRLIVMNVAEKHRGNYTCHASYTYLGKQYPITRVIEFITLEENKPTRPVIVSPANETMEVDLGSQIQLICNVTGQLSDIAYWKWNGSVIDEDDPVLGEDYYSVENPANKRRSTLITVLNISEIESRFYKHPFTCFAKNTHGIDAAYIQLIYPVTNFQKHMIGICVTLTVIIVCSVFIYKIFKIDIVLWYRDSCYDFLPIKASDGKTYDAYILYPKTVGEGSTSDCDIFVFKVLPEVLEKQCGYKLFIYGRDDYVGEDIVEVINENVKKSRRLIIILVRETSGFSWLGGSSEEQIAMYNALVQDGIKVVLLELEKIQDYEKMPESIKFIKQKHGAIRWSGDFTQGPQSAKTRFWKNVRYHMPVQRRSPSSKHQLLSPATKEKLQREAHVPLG
Sequence of recombinant soluble His-tagged CD36 (P16671 30-439): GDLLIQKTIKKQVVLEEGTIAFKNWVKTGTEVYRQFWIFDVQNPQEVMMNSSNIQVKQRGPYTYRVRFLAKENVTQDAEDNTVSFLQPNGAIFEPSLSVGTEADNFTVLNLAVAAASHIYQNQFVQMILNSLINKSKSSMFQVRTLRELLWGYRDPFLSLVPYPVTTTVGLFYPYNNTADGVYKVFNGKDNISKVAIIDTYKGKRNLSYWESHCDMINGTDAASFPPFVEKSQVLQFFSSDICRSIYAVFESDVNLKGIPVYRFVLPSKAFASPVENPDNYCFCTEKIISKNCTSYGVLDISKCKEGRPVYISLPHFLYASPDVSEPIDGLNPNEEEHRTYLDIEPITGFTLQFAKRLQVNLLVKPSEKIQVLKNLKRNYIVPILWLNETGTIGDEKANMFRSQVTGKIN

Substance: Kineret (from UniProt P18510 26-177) (ligand)
- decrease in NF-KB activation in HEK Blue cells (SEAP reporter, OD620) [1]: 100%

Substance: [(R)-Agl^3]-101.10 (peptide)
- IL-1β-induced human thymocyte (TF-1) proliferation [1]: 41%

Substance: [N-Amino-4-benzylimidazolin-2-one^4]GHRP-6 (His-D-Trp-Ala-(N-amino-4-benzyl-imidazolin-2-one)-D-Phe-Lys-NH2), 31b (peptide)
- Kd [2]: 11 µM
- ΔλSPR (nm) [2]: 1.6 nm
- JNK-kinase cellular assay EC50 [3]: > 10 µM

Substance: [N-Amino-4-methylimidazolin-2-one^4]GHRP-6 (His-D-Trp-Ala-(N-amino-4-methyl-imidazolin-2-one)-D-Phe-Lys-NH2), RS-31a (peptide)
- Kd [2]: 4.9 µM
- ΔλSPR (nm) [2]: 1.1 nm
- JNK-kinase cellular assay EC50 [3]: 0.0554 µM

Substance: [Nad^3]-101.10 (D-Arg-D-Tyr-Nad-D-Val-D-Glu-D-Leu-D-Ala-NH2) (peptide)
- IL-1β-induced human thymocyte (TF-1) proliferation [1]: 53%

Substance: [Nai^3]-101.10 (D-Arg-D-Tyr-Nai-D-Val-D-Glu-D-Leu-D-Ala-NH2) (peptide)
- IL-1β-induced human thymocyte (TF-1) proliferation [1]: 77%
- decrease in NF-KB activation in HEK Blue cells (SEAP reporter, OD620) [1]: 65%

Substance: [Nap^3]-101.10 (D-Arg-D-Tyr-Nap-D-Val-D-Glu-D-Leu-D-Ala-NH2) (peptide)
- IL-1β-induced human thymocyte (TF-1) proliferation [1]: 41%

Substance: [azaTyr^4]GHRP-6 (His-D-Trp-Ala-AzaTyr-D-Phe-Lys-NH2) (peptide)
- Kd [2]: 5 µM
- ΔλSPR (nm) [2]: 1.8 nm
- JNK-kinase cellular assay EC50 [3]: 0.214 µM
